# Source: article PMC4046987
# Test system: HfqBc (Hfq6) (Burkholderia cenocepacia J2315)
# Assay: EMSA
# Details: no MtvR; complexes seen only at 500 nM HfqBc or higher; excess yeast tRNA; 20 mM Tris-Cl pH 8.0, 1 mM DTT, 1 mM MgCl2, 10 mM KCl, 10 mM KH2PO4, excess yeast tRNA, 30 min at 25 C; native 8% PAGE with 10% glycerol
substance,measurement,value
hfqEc full mRNA (5'-UTR + CDS),Kd,11.6 µM
